Results from US20160228506A1, “Compositions and Formulations for Prevention and Reduction of Tumorigenesis, Cancer Cell Proliferation and Invasion, and Methods of Production and Use Thereof in Cancer Treatment” (PRONUTRIA, INC., priority 2013, published 2016).

B1: SEQID-00534: protein of the 168 nutritive polypeptide library (protein)
chain: MSIYVGNLSYEVTEDDLTAVFAEYGSVKRVKLPTDRETGRMRGFGFVEMDTEAEEQSAIDALDGAEWCGRDLRVNKAKPRENSGSFGGGGGGRRGGGGYSRRS
modifications: Arthrospira platensis NIES-39
notes: protein of the 168 nutritive polypeptide library
B2: SEQID-00532: protein of the 168 nutritive polypeptide library (protein)
chain: MSIAVGMIETIGFPAVVEAADSMVKAARVTLVGYEKIGSGRVTVIVRGDVSEVQASVSAGIESVKRVNGGEVSSTHIIARPHENLEYVLPIRYTDAVEQFRSY
modifications: Arthrospira platensis NIES-39
notes: as for B1
B3: SEQID-00529: protein of the 168 nutritive polypeptide library (protein)
chain: MLGYISAGKMGSSPSGARFFKYEVVGMRQNDETDKTEYQIRSSGSQFVIVPYNRMNQEMRRINRMGGKIVSIEPMTTDNTVSEAEGE
modifications: Arthrospira platensis Sp-1
notes: as for B1
B4: SEQID-00489: protein of the 168 nutritive polypeptide library (protein, listed as Saccharomyces cerevisiae)
chain: MSVEEVSKKFEENVSVDDTTATPKTVLSDSAHFDVKHPLNTKWTLWYTKPAVDKSESWSDLLRPVTSFQTVEEFWAIIQNIPEPHELPLKSDYHVFRNDVRPEWEDEANAKGGKWSFQLRGKGADIDELWLRTLLAVIGETIDEDDSQINGVVLSIRKGGNKFALWTKSEDKEPLLRIGGKFKQVLKLTDDGHLEFFPHSSANGRHPQPSITL
modifications: source: /note="strain ATCC 204508 / S288c"
notes: as for B1
B5: SEQID-00525: protein of the 168 nutritive polypeptide library (protein, listed as Saccharomyces cerevisiae)
chain: MTKNFIVTLKKNTPDVEAKKFLDSVHHAGGSIVHEFDIIKGYTIKVPDVLHLNKLKEKHNDVIENVEEDKEVHT
modifications: source: /note="strain ATCC 204508 / S288c"
notes: as for B1
B6: SEQID-00484: protein of the 168 nutritive polypeptide library (protein, listed as Saccharomyces cerevisiae)
chain: MSEKFPPLEDQNIDFTPNDKKDDDTDFLKREAEILGDEFKTEQDDILETEASPAKDDDEIRDFEEQFPDINSANGAVSSDQNGSATVSSGNDNGEADDDFSTFEGANQSTESVKEDRSEVVDQWKQRRAVEIHEKDLKDEELKKELQDEAIKHIDDFYDSYNKKKEQQLEDAAKEAEAFLKKRDEFFGQDNTTWDRALQLINQDDADIIGGRDRSKLKEILLRLKGNAKAPGA
modifications: source: /note="strain ATCC 204508 / S288c"
notes: as for B1
B7: SEQID-00528: protein of the 168 nutritive polypeptide library (protein, listed as Saccharomyces cerevisiae)
chain: MVLVQDLLHPTAASEARKHKLKTLVQGPRSYFLDVKCPGCLNITTVFSHAQTAVTCESCSTVLCTPTGGKAKLSEGTSFRRK
modifications: source: /note="strain ATCC 204508 / S288c"
notes: as for B1
B8: SEQID-00507: protein of the 168 nutritive polypeptide library (protein, listed as Agaricus bisporus)
chain: MISFYDLTAKPPFKTVSVNSWKIRYALNFKNLPYKTLYFEFPDMAKEFSKVGIPPSSVSADGPSYTVPSLIDDSTNTRISESFTIALYLDKQYPDAPKLFPAGTEALQAAFHEEFYKVMSPTFPFFFPKAGNVLNKPSDDYFAVTRAKMFGMSMADFEPKGEARVEAWKKVKDAFDTLESWMSKTSGPFFMGETVSFADFVIGGLLNEFSMCMGENSPEWQDVLKWNNGRWATLKKKLEVYANTDQ
modifications: source: /note="var. bisporus"; source: /note="strain H97 / ATCC MYA-4626 / FGSC 10389"
notes: as for B1
B9: SEQID-00495: protein of the 168 nutritive polypeptide library (protein, listed as Vitis vinifera)
chain: MEKNVESDPNPPLASGPEFPPATTPADVKNDVALEKSVVPPPEVKADESKALAVVEKTPDSAAKKTSGGSFERDVALANLEKEKQLSFIRAWEESEKSKVDNKAQKKLSDVCAWENSKKAAVEANLKKIEEELEKKKAEYAEKMKNKVALIHKQAEEKKAMIEARRGEEFLKAEEMAAKFRATGQTPKKVLGCFGG
B10: SEQID-00520: protein of the 168 nutritive polypeptide library (protein, listed as Gallus gallus)
chain: MSDEEKKRRAATARRQHLKSAMLQLAVTEIEKEAAAKEVEKQNYLAEHCPPLSLPGSMQELQELCKKLHAKIDSVDEERYDTEVKLQKTNKELEDLSQKLFDLRGKFKRPPLRRVRMSADAMLRALLGSKHKVNMDLRANLKQVKKEDTEKEKDLRDVGDWRKNIEEKSGMEGRKKMFEAGES
B11: SEQID-00515: protein of the 168 nutritive polypeptide library (protein, listed as Saccharomyces cerevisiae)
chain: MSNLLNKFADKLHGNDHDERYEDDNDDQTRQQRHEKHQQREFRNQGSKADPYGEENQGNFPQRQQPQSNLGGNTQFGGNDFQQQTTDYTAGTGGGTYTQTYRETNTQGQLDDDEDDDFLTSGQQQKQGRTRGAQSNRYQSSNIGSGRRDLSGSGNDEYDDDSGNQGVW
modifications: source: /note="strain ATCC 204508 / S288c"
notes: as for B1
B12: SEQID-00509: protein of the 168 nutritive polypeptide library (protein, listed as Gadus morhua)
chain: MSDTEDVDQVEDEKPKFKPSAPKIPDGEKVDFDDIQKKRQNKDLSELQGLIDAHFEGRKKEEEELIALKERIEKRRAERAEQQRIRSEKDKERQARREEERLKREEADAKKKMEEDAKKKSALSNMGSNYSSHLQKADQKRGGGKKETEREKKKKILAARRKGLNIDHLNEDKLKDKINELHEWMSTLESEKFDHMERLNRQKYEVTTLRKRVEELSKFSKKGKTVRRK
B13: SEQID-00497: protein of the 168 nutritive polypeptide library (protein, listed as Saccharomyces cerevisiae)
chain: MSIASYAQELKLALHQYPNFPSEGILFEDFLPIFRNPGLFQKLIDAFKLHLEEAFPEVKIDYIVGLESRGFLFGPTLALALGVGFVPVRKAGKLPGECFKATYEKEYGSDLFEIQKNAIPAGSNVIIVDDIIATGGSAAAAGELVEQLEANLLEYNFVMELDFLKGRSKLNAPVFTLLNAQKEALKK
modifications: source: /note="strain ATCC 204508 / S288c"
notes: as for B1
B14: SEQID-00521: protein of the 168 nutritive polypeptide library (protein, listed as Arthrospira platensis)
chain: MQDAITSVINSSDVQGKYLDASAIQKLKAYFATGELRVRAATTISANAANIVKEAVAKSLLYSDITRPGGNMYTTRRYAACIRDLDYYLRYATYAMLAGDPSILDERVLNGLKETYNSLGVPIGATVQAIQAMKEVTAGLVGADAGKEMGIYFDYICSGLS
B15: SEQID-00533: protein of the 168 nutritive polypeptide library (protein)
chain: MVTEFQTRDLADVIRRPIVTEKATIQMELNQFTFDVDPRADKPTIKAAVELLFPVKVLSVNTQNPPRRQRRVGRFVGYKPRYKRAIVTLEDGEALRKVLFPEV
modifications: Arthrospira platensis NIES-39
notes: as for B1
B16: SEQID-00518: protein of the 168 nutritive polypeptide library (protein, listed as Lactobacillus acidophilus)
chain: MTKGILGRKVGMTQIFTKDGVLVPVTVVEATPNVVMQVKTVESDGYEAVQLGYQDKREVLSNKPEKGHADKAKTSPKRFIREIRGVELKDYEVGSEVTVDTFKEGDVVNVTGTSRGHGYQGNIKRWGQSRGPETHGSRYHRIPGSMGSIINRVPKGKRLPGHMGVKKVTIENLVIEKVVADKNVLMIKGNVPGAKNSLIVVKTASKAVKADK
modifications: source: /note="strain 30SC"
notes: as for B1
B17: SEQID-00524: protein of the 168 nutritive polypeptide library (protein)
chain: MPAWYSIDSRVRGTSLVVKGLKENVEYHFRVSAENQFGISKPMKSEEPVIPKTPLSKASSNHNTVNFLS
modifications: Ovis aries
notes: as for B1

Test: SGF digest of 168 nutritive polypeptide library, intact protein by LC-MS/MS
Type: in vitro ADME
Conditions: 168 nutritive polypeptide library SGF digest, LC-MS/MS spectral counts
Description: The in vitro intact half-life of multiple polypeptides in a complex mixture was determined using the simulated gastric in vitro digestion described above. Briefly, the 168 nutritive polypeptide library was generated as described herein by cloning, transforming, and expressing a gene library encoding 168 proteins as a single mixture. The recombinantly expressed proteins were purified from host cell proteins by IMAC purification as described herein.
The 168 Protein Library was treated with SGF as described above and the t=0 and t=10 min samples were analyzed for intact protein by LC-MS/MS. To begin, 10 μg of sample was loaded onto a 10% SDS-PAGE gel (Invitrogen) and run approximately 5 cm into the gel. The gel was excised into ten fractions from 100 kD to the dye front and the gel slices were processed by washing with 25 mM ammonium bicarbonate, followed by acetonitrile. Gel fractions were then reduced with 10 mM dithiothreitol at 60° C., followed by alkylation with 50 mM iodoacetamide at room temperature. Finally, the samples were digested with trypsin (Promega) at 37° C. for 4 h and the digestions were quenched with the addition of formic acid. The samples were then analyzed by nano LC/MS/MS using an EasynLC 1000 HPLC system interfaced to a ThermoFisher Q Exactive. Peptides were loaded on a trapping column and eluted over a 75 μm analytical column at 350 nL/min; both columns were packed with PepMap C18 3 μm resin (ThemoFisher). A 1 hour gradient was employed. The mass spectrometer was operated in data-dependent mode, with MS and MS/MS performed in the Orbitrap at 70,000 FWHM resolution and 17,500 FWHM resolution, respectively. The fifteen most abundant ions were selected for MS/MS. Data were searched against an appropriate database using Mascot to identify peptides. Mascot DAT files were parsed into the Scaffold software for validation, filtering and to create a nonredundant list per sample. Data were filtered at 1% protein and peptide false discovery rate (FDR) and requiring at least two unique peptides per protein. A full list of detected proteins and their spectral counts (SpC) was generated and reported as a function of each collected gel fraction. SpC are a count of the number of spectra identified for a given protein and are used as a measure of relative protein abundance (Liu, H. et al., Analytical Chemistry 2004, 76: 4193-4201). To calculate the percentage of intact protein remaining at the 10 min time point of the SGF digest the number of SpC representative of intact peptide in the t=10 min sample were divided by the number of SpC representative of intact peptide in the t=0 min sample. The number of SpC representative of intact peptide was defined as the sum of the SpC in the fraction with the highest number of SpC assigned to that protein in the t=0 min sample and the two flanking fractions.

In order of rising “% Intact Protein at 10 min” value:
1. B1  0%
2. B2  0%
3. B3  0%
4. B4  0%
5. B6  0%
6. B8  0%
7. B9  0%
8. B10  0%
9. B16  0%
10. B17  0%
11. B14  11.5%
12. B7  11.8%
13. B5  13.7%
14. B11  17%
15. B15  19%
16. B13  20.3%
17. B12  36.4%
